In this data set the test system is MS2 coat protein. Briefly: apparent KD of MS2 coat protein; designed switch direction (-1 OFF switch, 1 ON switch): -1; higher = weaker reporter binding. The procedure, abridged: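 Transcription of designed RNA switches on Illumina chips was done by stalled E. coli RNA polymerase. SNAP-549-labelled MS2 coat protein was then titrated in doubling steps from 0.7 or 1.5 nM to 3 µM, with steps of 0.8–1.5 h at the lowest and 10–20 min at the highest concentration. The per-design median over clusters of curve-fitted normalised fluorescence is reported as apparent KD.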

Where [1] appears, read: input ligand: microRNA oligo, concentration not stated.
Setting [2] is: Eterna round: R95, input ligand: microRNA oligo, concentration not stated.

For the sequence “ACAUGAGGAUCACCCAUGUAAACAUAAUGGCUCAUGUAGAGUCAGGAUAUGCGUGGCGAACAAACGCAGAAGGGACAAGACUGG [Deportation 26 - Jieux - Exclusion NG 3] (Eterna round: R96, puzzle: Exclusion NG 3)”, the “apparent KD of MS2 coat protein” value amounted to 0.0281 µM (input ligand: FMN 200 uM), 0.0308 µM under setting [1] and 0.0296 µM (input ligand: none).
On to “ACAUGAGGAUCACCCAUGUAAACAUGAUGGCUGAUGUAGAGCUAGGAUAUGAGUGAAUAUCUAUCUCAGAAGGAGCUUGACUGG [Deportation 46 - Jieux - Exclusion NG 3] (Eterna round: R96, puzzle: Exclusion NG 3)”, for which the “apparent KD of MS2 coat protein” value by setting is: (input ligand: FMN 200 uM) 0.02 µM; under setting [1], 0.0158 µM; (input ligand: none) 0.0249 µM.
In the same order, the values of “ACAUGAGGAUCACCCAUGUAAACGUAAUGGCUCAUGUAGAGUCAGGAUAUGCGUGGCGAACUCGCGCAGAAGGGACAAGACUGG [Deportation 22 - Jieux - Exclusion NG 3] (Eterna round: R96, puzzle: Exclusion NG 3)” are 0.0304 µM, 0.0237 µM and 0.0286 µM.
“ACAUGAGGAUCACCCAUGUAAUGAAGGGUACUAUAUUAAACGUAGGAUAUCGAUGUAAGUUUGUUCGAGAAGGACGAUUGCCUU [JR_ExcNG3_Sub053] (Eterna round: R96, puzzle: Exclusion NG 3)”: the “apparent KD of MS2 coat protein” value came to 0.0281 µM (input ligand: FMN 200 uM), 0.0386 µM under setting [1] and 0.0758 µM (input ligand: none).
As for “ACAUGAGGAUCACCCAUGUCCGUCUGGUCUGUCUCGGCUGUCGAGGAUAUAGCUCGGUAUCCGCGCUAGAAGGCGGGAGCCGGU [Aenatbe mod 92] (Eterna round: R96, puzzle: Exclusion NG 3)”, the “apparent KD of MS2 coat protein” value is, setting by setting: (input ligand: FMN 200 uM) 0.0309 µM; under setting [1], 0.0318 µM; (input ligand: none) 0.035 µM.
Consider “ACAUGAGGAUCACCCAUGUCUGGCUGGUCCGUCUCGGCUGUCGAGGAUAUAGCUCGGUGUCCGCGCUAGAAGGCGGGAGCUGGU [Aenatbe mod 82] (Eterna round: R96, puzzle: Exclusion NG 3)”, for which the “apparent KD of MS2 coat protein” value reads like this: (input ligand: FMN 200 uM) 0.631 µM; under setting [1], 0.078 µM; (input ligand: none) 0.143 µM.
As to “ACAUGAGGAUCACCCAUGUGAAAAGAAUGGCUGACACAGAGAUAGGAUAUAGGUGCAUAUCUAACCUAGAAGGGUCAUGACUGG [Deportation 77 - Jieux - Exclusion NG 3] (Eterna round: R96, puzzle: Exclusion NG 3)”, the “apparent KD of MS2 coat protein” value runs as follows: (input ligand: FMN 200 uM) 0.0235 µM; under setting [1], 0.0223 µM; (input ligand: none) 0.033 µM.
In the same order, the values of “ACAUGAGGAUCACCCAUGUGACAAUAAUGGCUGAUACAGAGACAGGAUAUUCGUGAAUAUCUAACGAAGAAGGGUCAUGACUGG [Deportation 69 - Jieux - Exclusion NG 3] (Eterna round: R96, puzzle: Exclusion NG 3)” are 0.0379 µM, 0.0457 µM and 0.0518 µM.
In the same order, the values of “ACAUGAGGAUCACCCAUGUGACCACGAUGGCUGAUGUAAAGACAGGAUAUGUGUGAAUAUCUAACACAGAAGGGUCUUGACUGG [Deportation 56 - Jieux - Exclusion NG 3] (Eterna round: R96, puzzle: Exclusion NG 3)” are 0.0338 µM, 0.0326 µM and 0.0332 µM.
On to “ACAUGAGGAUCACCCAUGUUGUACUGGAUAGGGUGGUCCAGGUAGGAUAUGCAAACGCGUUGCGAGCAGAAGGACCACAGCCAG [Ceed] (Eterna round: R96, puzzle: Exclusion NG 3)”, for which the “apparent KD of MS2 coat protein” value is, setting by setting: (input ligand: FMN 200 uM) 0.0498 µM; under setting [1], 0.0294 µM; (input ligand: none) 0.0353 µM.
For the sequence “ACAUGUAAUGCAGGAUAUGGGACACAUGAGGAUCACCCAUGUUACCAUAUGUAAUGCUAAGAGUCUCAGAAGGGUAUGUACAUG [Ex NG2 #47] (Eterna round: R96, puzzle: Exclusion NG 2)”, the “apparent KD of MS2 coat protein” value was 0.0086 µM (input ligand: FMN 200 uM), 0.0122 µM under setting [1] and 0.0156 µM (input ligand: none).
Consider “ACAUGUAAUGUAGGAUAUUUUACACAUGAGGAUCACCCAUGUAACCGGAGGCUUUACUAUGAGUAAGAGAAGGGUAUGUACAUG [Ex NG2 #63] (Eterna round: R96, puzzle: Exclusion NG 2)”, for which the “apparent KD of MS2 coat protein” value was 0.0905 µM (input ligand: FMN 200 uM), 0.0852 µM under setting [1] and 0.131 µM (input ligand: none).
For the sequence “ACAUGUACAGAGGAUAUGCGCCUUGGCAAUGGUGUAGAAGGCUGAACAUGAGGAUCACCCAUGUGCAAUCCAAC [EX6 A.5] (Eterna round: R97, puzzle: Exclusion 6)”, the “apparent KD of MS2 coat protein” value is, setting by setting: (input ligand: FMN 200 uM) 0.378 µM; (input ligand: none) 0.0554 µM.
As for “ACAUGUAUUGCAGGAUAUGGGACACAUGAGGAUCACCCAUGUGACUACAUGUCAUGCCACGGGUCUCAGAAGGGUAUGUACAUG [Ex NG2 #41] (Eterna round: R96, puzzle: Exclusion NG 2)”, the “apparent KD of MS2 coat protein” value turned out to be 0.0233 µM (input ligand: FMN 200 uM), 0.0121 µM under setting [1] and 0.0149 µM (input ligand: none).
“ACAUGUCAUUGAGGAUAUCGCACACAUGAGGAUCACCCAUGUAAACGGAUGCUCUUUCGUGGGUUCGAGAAGGCGAUGUACAUU [Ex NG2 #96] (Eterna round: R96, puzzle: Exclusion NG 2)”: the “apparent KD of MS2 coat protein” value reads like this: (input ligand: FMN 200 uM) 0.136 µM; under setting [1], 0.049 µM; (input ligand: none) 0.088 µM.
In the same order, the values of “ACAUGUCAUUGAGGAUAUUGCACACAUGAGGAUCACCCAUGUAAACGGAUGCUCUUACGUGGGUUCGAGAAGGCGAUGUACAUU [Ex NG2 #94] (Eterna round: R96, puzzle: Exclusion NG 2)” are 0.156 µM, 0.186 µM and 0.252 µM.
For the sequence “ACAUGUUAUCCAUGAUAUCACAUGAGGAUCACCCAUGUUAUGGCGAUUUUGAGGUGUAAGCUUUGUGCUCGACUUAU [JR_STOV1_Sub056] (Eterna round: R97, puzzle: Sensor, turn-off variant 1)”, the “apparent KD of MS2 coat protein” value (input ligand: FMN 200 uM) came to 0.045 µM and the “apparent KD of MS2 coat protein” value (input ligand: none) was determined as 0.05 µM.
Regarding “ACAUUACAUGAGGAUCACCCAUGUGAGGAUAUGGUGCGGUAGUGUCCUGUCGCGUACUCCAGAAGGCGCGGGUG [1st #46] (Eterna round: R97, puzzle: Exclusion 1)”, the “apparent KD of MS2 coat protein” value by setting is: (input ligand: FMN 200 uM) 0.174 µM; (input ligand: none) 0.194 µM.
On to “ACAUUGAAUGUGAGGAUAUCGAUGUGAUGGGUUGUCGAGAAGGCACAUGAGGAUCACCCAUGUGGGAUGUAGCA [JR_BMEx4_Sub033] (Eterna round: R97, puzzle: Brourd's mod of Exclusion 4)”, for which the “apparent KD of MS2 coat protein” value runs as follows: (input ligand: FMN 200 uM) 0.349 µM; (input ligand: none) 0.0912 µM.
Take “ACCAAAGCAGUAGGAUAUACGCACAUGAGGAUCACCCAUGUAGCACGUCUCCAGACACCGAAUGCGUAGAAGGACUGCGCGCAA [Eternabot solution 3] (Eterna round: R96, puzzle: Exclusion NG 2)”: the “apparent KD of MS2 coat protein” value amounted to 0.00786 µM (input ligand: FMN 200 uM), 0.00469 µM under setting [1] and 0.017 µM (input ligand: none).
On to “ACCAAGCUAGGAUAUGCUUGGGCUCAAAUAAAUAAACACAAACAUGAGGAUCACCCAUGUAGAAGGAGCUUGCU [Zaabiquer] (puzzle: Exclusion 2)”, for which, under setting [2], the “apparent KD of MS2 coat protein” value amounted to 0.0126 µM.
As for “ACCGAACAUGAGGAUCACCCAUGUAAGGAUAUCCGUGGACAGCGCCAAAGUUACCGGCGGAGAAGGUGCAUGGU (Eterna round: R97, puzzle: Exclusion 1)”, the “apparent KD of MS2 coat protein” value reads like this: (input ligand: FMN 200 uM) 0.0246 µM; (input ligand: none) 0.0192 µM.
As to “ACCGUGUAAGGAUAUCGAGGCCGAGGAAGUCGCAUGGCCUGUGAGAAGGUACAUGAGGAUCACCCAUGUCCCAU [Eternabot (L2) Solution 6] (Eterna round: R97, puzzle: Exclusion 4)”, the “apparent KD of MS2 coat protein” value reads like this: (input ligand: FMN 200 uM) 0.0287 µM; (input ligand: none) 0.0276 µM.
On to “ACCUCACAUGAGGAUCACCCAUGUCAGGAUAUAUUGUGCAAGCGCCGUGGCGUAUGUAGUAGAAGGGACGAAAC [Eternabot (L1) Solution 77] (Eterna round: R97, puzzle: Exclusion 1)”, for which the “apparent KD of MS2 coat protein” value (input ligand: FMN 200 uM) was 0.0183 µM and the “apparent KD of MS2 coat protein” value (input ligand: none) turned out to be 0.0178 µM.
Consider “ACCUCACAUGAGGAUCACCCAUGUCAGGAUAUGUACCCGAUCAAGUCAGAGAUUGGGAGCAGAAGGGACUGCGG [Leesla] (puzzle: Exclusion 1)”, for which, under setting [2], the “apparent KD of MS2 coat protein” value is 0.104 µM.
For the sequence “ACCUCUAUCUAGGAUAUUGGAACCCGGUUAAAACAAGAAGGAGAUACAUGAGGAUCACCCAUGUUAACGAUGGA [Ereseninso] (puzzle: Exclusion 6)”, the “apparent KD of MS2 coat protein” value by setting is: (Eterna round: R95, input ligand: FMN 200 uM) 0.0975 µM; under setting [2], 0.0233 µM; (Eterna round: R95, input ligand: none) 0.0285 µM.
With “ACGAUGACCGAAAAGUGUAAACUGACAUGAGGAUCACCCAUGUAGGAUAUGGCUACGAAAAGUAGUCAGAAGGGCAUGUCAUCA [Omei Exc(NG) 3 Av9] (Eterna round: R96, puzzle: Exclusion NG 3)”, the “apparent KD of MS2 coat protein” value (input ligand: FMN 200 uM) was 0.016 µM, the “apparent KD of MS2 coat protein” value under setting [1] came out at 0.0164 µM and the “apparent KD of MS2 coat protein” value (input ligand: none) is 0.0209 µM.
Consider “ACGGACGCAGGAUAUCGCACCGGAGACUUGAGGAUCACCCAAGUGGUUUUCCCUUCGCAACGAGAAGGGCGACCUA [Tiarle] (Eterna round: R97, puzzle: Exclusion 5)”, for which the “apparent KD of MS2 coat protein” value runs as follows: (input ligand: FMN 200 uM) 0.0557 µM; (input ligand: none) 0.0352 µM.

The values above are taken from the supplement of paper PMC9170038.
